Results as given in patent US20260250352A1 (ALPINE IMMUNE SCIENCES, published 2026).
Where “and” joins values, the source holds several entries; their conditions need not be identical. Equal values may be shown once. Read-outs that look alike come from different tables or passages of the source.

Legend:
recombinant human BAFF [1] = target: T1, recombinant human BAFF (human, UniProt Q9Y275 134-285); assay: cell-based or functional assay
recombinant human APRIL [2] = target: T2, recombinant human APRIL (human, UniProt O75888 105-250, limits assumed); assay: cell-based or functional assay
T2 sequence (looked up): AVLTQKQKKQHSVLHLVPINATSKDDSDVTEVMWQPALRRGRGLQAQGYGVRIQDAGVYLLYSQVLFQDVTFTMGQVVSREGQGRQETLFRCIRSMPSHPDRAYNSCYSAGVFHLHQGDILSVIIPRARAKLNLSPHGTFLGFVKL

recombinant mouse APRIL [3] = target: T3, recombinant mouse APRIL (mouse, UniProt Q9D777 96-241, limits assumed); assay: cell-based or functional assay
T3 sequence (looked up): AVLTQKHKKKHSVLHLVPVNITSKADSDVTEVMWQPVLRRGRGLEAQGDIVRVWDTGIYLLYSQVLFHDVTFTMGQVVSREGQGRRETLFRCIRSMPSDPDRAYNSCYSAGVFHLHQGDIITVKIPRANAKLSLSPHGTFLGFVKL

recombinant mouse BAFF [4] = target: T4, recombinant mouse BAFF (mouse, UniProt Q9WU72 127-309); assay: cell-based or functional assay
T4 sequence (Q9WU72 127-309 limits assumed): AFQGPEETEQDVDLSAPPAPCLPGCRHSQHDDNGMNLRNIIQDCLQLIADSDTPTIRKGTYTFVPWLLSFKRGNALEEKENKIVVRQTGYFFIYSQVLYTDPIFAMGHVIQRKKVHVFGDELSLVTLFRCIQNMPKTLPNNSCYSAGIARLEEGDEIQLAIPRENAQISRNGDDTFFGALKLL

[5] = target: single chain BAFF homotrimer (BAFF-BAFF-BAFF) (human, UniProt Q9Y275 140-285, limits assumed); assay: cell-based or functional assay
BAFF 60-mer = BAFF 60-mer (human, UniProt Q9Y275 134-285, limits assumed); assay: cell-based or functional assay
[6] = target: single chain BAFF-APRIL-APRIL heterotrimer (BAA) (human, UniProt Q9Y275 140-285; O75888 111-250; O75888 111-250, limits assumed); assay: cell-based or functional assay
[7] = target: single chain APRIL-BAFF-BAFF heterotrimer (ABB) (human, UniProt O75888 111-250; Q9Y275 140-285; Q9Y275 140-285, limits assumed); assay: cell-based or functional assay
recombinant human BAFF [8] = target: T1, recombinant human BAFF; assay: cell-based or functional assay; remark: listed apart in the source
recombinant human APRIL [9] = target: T2, recombinant human APRIL; assay: cell-based or functional assay; remark: listed apart in the source
recombinant human BAFF [10] = target: T1, recombinant human BAFF; assay: cell-based or functional assay; remark: listed apart in the source
recombinant human BAFF [11] = target: T1, recombinant human BAFF; assay: SPR
recombinant human BAFF [12] = target: T1, recombinant human BAFF; assay: cell-based or functional assay; remark: listed apart in the source
recombinant human BAFF [13] = target: T1, recombinant human BAFF; assay: cell-based or functional assay; remark: listed apart in the source
recombinant human APRIL [14] = target: T2, recombinant human APRIL; assay: cell-based or functional assay; remark: listed apart in the source
recombinant human BAFF [15] = target: T1, recombinant human BAFF; assay: SPR; remark: listed apart in the source
recombinant human BAFF [16] = target: T1, recombinant human BAFF; assay: cell-based or functional assay; remark: listed apart in the source
recombinant human APRIL [17] = target: T2, recombinant human APRIL; assay: SPR, apparent (ka app); apparent (ka app)
recombinant mouse BAFF [18] = target: T4, recombinant mouse BAFF; assay: cell-based or functional assay; remark: listed apart in the source
recombinant human APRIL [19] = target: T2, recombinant human APRIL; assay: cell-based or functional assay; remark: listed apart in the source
recombinant human BAFF [20] = target: T1, recombinant human BAFF; assay: cell-based or functional assay; remark: listed apart in the source
recombinant human APRIL [21] = target: T2, recombinant human APRIL; assay: cell-based or functional assay; remark: listed apart in the source
recombinant human APRIL [22] = target: T2, recombinant human APRIL; assay: cell-based or functional assay; remark: listed apart in the source
recombinant human BAFF [23] = target: T1, recombinant human BAFF; assay: cell-based or functional assay; remark: listed apart in the source
recombinant human APRIL [24] = target: T2, recombinant human APRIL; assay: SPR, apparent (KD app)
recombinant human BAFF [25] = target: T1, recombinant human BAFF; assay: cell-based or functional assay; remark: listed apart in the source
rat APRIL = rat APRIL (rat); assay: cell-based or functional assay
recombinant human APRIL [26] = target: T2, recombinant human APRIL; assay: cell-based or functional assay; remark: listed apart in the source
cynomolgus monkey BAFF = cynomolgus monkey BAFF (cynomolgus monkey, UniProt A0A2K5V2X4 134-285); assay: cell-based or functional assay
recombinant mouse APRIL [27] = target: T3, recombinant mouse APRIL; assay: cell-based or functional assay; remark: listed apart in the source
cynomolgus monkey APRIL = cynomolgus monkey APRIL (cynomolgus monkey); assay: cell-based or functional assay
rat BAFF = rat BAFF (rat); assay: cell-based or functional assay
recombinant mouse BAFF [28] = target: T4, recombinant mouse BAFF; assay: cell-based or functional assay; remark: listed apart in the source
recombinant human APRIL [29] = target: T2, recombinant human APRIL; assay: SPR, apparent (kd app)
recombinant human BAFF [30] = target: T1, recombinant human BAFF; assay: cell-based or functional assay; remark: listed apart in the source
recombinant human APRIL [31] = target: T2, recombinant human APRIL; assay: cell-based or functional assay; remark: listed apart in the source

B1: Telitacicept (Fc fusion)
chain: SRVDQEERFPQGLWTGVAMRSCPEEQYWDPLLGTCMSCKTICNHQSQRTCAAFCRSLSCRKEQGKFYDHLLRDCISCASICGQHPKQCAYFCENKLRSPVNLPPEL
modifications: The drug is a disulfide-linked Fc-fusion homodimer. Only one TACI ECD arm is given, and the Fc is left out.
notes: Commercial product (sourced through Clinigen; RemeGen); also called Telitacicept/Tai'ai (RemeGen); WT TACI-Fc (Telitacicept); not shown: Fc part of the commercial drug (Clinigen/RemeGen)
IC50, TACI/Jurkat/NF-kB reporter (recombinant human BAFF [1]): 14.5 nM
IC50, TACI/Jurkat/NF-kB reporter (recombinant human APRIL [2]): 53.9 nM
IC50, TACI/Jurkat/NF-kB reporter (recombinant mouse APRIL [3]): 15.5 nM
IC50, TACI/Jurkat/NF-kB reporter (recombinant mouse BAFF [4]): 7.9 nM
IC50, TACI/Jurkat/NF-kB reporter [5]: 30.8 nM
IC50, TACI/Jurkat/NF-kB reporter (BAFF 60-mer): > 100 nM
IC50, TACI/Jurkat/NF-kB reporter [6]: 173 pM
IC50, TACI/Jurkat/NF-kB reporter [7]: 408 pM
IC50, Jurkat/NF-kB/TACI reporter (recombinant human BAFF [8]): 6850 pM
IC50, Jurkat/NF-kB/TACI reporter (recombinant human APRIL [9]): 17.2 nM
IC50, Jurkat/NF-kB/TACI reporter (recombinant human BAFF [10]): 9.17 nM and 7.3 nM
Kd (recombinant human BAFF [11]): 0.491 nM
koff (recombinant human BAFF [11]): 8.63e-05 s⁻¹
kon (recombinant human BAFF [11]): 175000 M⁻¹ s⁻¹

B2: WT TACI 13-118-Fc based on the published telitacicept sequence (Fc fusion)
chain: SRVDQEERFPQGLWTGVAMRSCPEEQYWDPLLGTCMSCKTICNHQSQRTCAAFCRSLSCRKEQGKFYDHLLRDCISCASICGQHPKQCAYFCENKLRSPVNLPPEL
IC50, TACI/Jurkat/NF-kB reporter (recombinant human BAFF [1]): 19.6 nM
IC50, TACI/Jurkat/NF-kB reporter (recombinant human APRIL [2]): 73.1 nM
IC50, TACI/Jurkat/NF-kB reporter (recombinant mouse APRIL [3]): 14.3 nM
IC50, TACI/Jurkat/NF-kB reporter (recombinant mouse BAFF [4]): 9.4 nM

B3: Belimumab (antibody, V domains shown)
VH: QVQLQQSGAEVKKPGSSVRVSCKASGGTFNNNAINWVRQAPGQGLEWMGGIIPMFGTAKYSQNFQGRVAITADESTGTASMELSSLRSEDTAVYYCARSRDLLLFPHHALSPWGRGTMVTVSS
VL: SSELTQDPAVSVALGQTVRVTCQGDSLRSYYASWYQQKPGQAPVLVIYGKNNRPSGIPDRFSGSSSGNTASLTITGAQAEDEADYYCSSRDSSGNHWVFGGGTELTVLG
IC50, TACI/Jurkat/NF-kB reporter (recombinant human BAFF [1]): 4.8 nM
IC50, TACI/Jurkat/NF-kB reporter [5]: 8.52 nM
IC50, TACI/Jurkat/NF-kB reporter [7]: 90 pM
IC50, Jurkat/NF-kB/TACI reporter (recombinant human BAFF [8]): 2260 pM
IC50, Jurkat/NF-kB/TACI reporter (recombinant human BAFF [10]): 2.19 nM
IC50 relative to WT TACI (68-110)-Fc (Δ WT) (recombinant human BAFF [10]): 1.18 ratio
IC50, Jurkat/NF-kB/TACI reporter (recombinant human BAFF [12]): 2500 nM
IC50 relative to TACI 30-110-Fc (recombinant human BAFF [12]): 0.43 ratio

B4: 7 TACI CRD1/CRD2-Fc (Fc fusion)
variant TACI CRD1/CRD2 - linker - Fc chain: VAMRSCPEEQYWDPLLGTCMSCKTICNHQSQRTCAAFCRSLSCRKEQGKFYDHLLRDCISCASICGQHPKQCDYFCENKLRSGSGGGGSEPKSSDKTHTCPPCPAPEAEGAPSVFLFPPKPKDTLMISRTPEVTCVVVDVSHEDPEVKFNWYVDGVEVHNAKTKPREEQYNSTYRVVSVLTVLHQDWLNGKEYKCKVSNKALPAPIEKTISKAKGQPREPQVYTLPPSRDELTKNQVSLTCLVKGFYPSDIAVEWESNGQPENNYKTTPPVLDSDGSFFLYSKLTVDKSRWQQGNVFSCSVMHEALHNHYTQKSLSLSPG
IC50 (read off the curve), human BAFF, NF-κB luciferase reporter, Jurkat/TACI/NF-κB cells (recombinant human BAFF [13]): ~2000 pM
IC50 (read off the curve), human APRIL, NF-κB luciferase reporter, Jurkat/TACI/NF-κB cells (recombinant human APRIL [14]): ~3000 pM

B5: 26 TACI CRD2-Fc (Fc fusion)
chain: SLSCRKEQGEYYDHLLRDCISCASICGQHPKQCADFCENKLRSGSGGGGSEPKSSDKTHTCPPCPAPEAEGAPSVFLFPPKPKDTLMISRTPEVTCVVVDVSHEDPEVKFNWYVDGVEVHNAKTKPREEQYNSTYRVVSVLTVLHQDWLNGKEYKCKVSNKALPAPIEKTISKAKGQPREPQVYTLPPSRDELTKNQVSLTCLVKGFYPSDIAVEWESNGQPENNYKTTPPVLDSDGSFFLYSKLTVDKSRWQQGNVFSCSVMHEALHNHYTQKSLSLSPG
notes: also called TACI (26)-Fc_73; 26 TACI-Fc
IC50, TACI/Jurkat/NF-kB reporter (recombinant human BAFF [1]): 1.4 nM
IC50, TACI/Jurkat/NF-kB reporter (recombinant human APRIL [2]): 3.8 nM
IC50, TACI/Jurkat/NF-kB reporter (recombinant mouse APRIL [3]): 0.9 nM
IC50, TACI/Jurkat/NF-kB reporter (recombinant mouse BAFF [4]): 1 nM
fold better affinity than telitacicept (recombinant human BAFF [15]): ~8 fold
IC50, TACI/Jurkat/NF-kB reporter [5]: 3.36 nM
IC50, TACI/Jurkat/NF-kB reporter (BAFF 60-mer): 14.7 nM
IC50, TACI/Jurkat/NF-kB reporter [6]: < 16 pM
IC50, TACI/Jurkat/NF-kB reporter [7]: 103 pM
IC50 (read off the curve), human BAFF, NF-κB luciferase reporter, TACI/Jurkat/NF-κB cells (recombinant human BAFF [16]): 1 to 2 nM
kon (recombinant human APRIL [17]): 7e+09 M⁻¹ s⁻¹
IC50, Jurkat/NF-kB/TACI reporter (recombinant human BAFF [8]): 1340 pM
IC50, Jurkat/NF-kB/TACI reporter (recombinant human APRIL [9]): 1.76 nM
IC50 (read off the curve), mouse BAFF, NF-κB luciferase reporter, Jurkat/NF-κB/TACI cells (recombinant mouse BAFF [18]): ~1000 pM
IC50, Jurkat/NF-kB/TACI reporter (recombinant human BAFF [10]): 1.55 nM
IC50 relative to WT TACI (68-110)-Fc (Δ WT) (recombinant human BAFF [10]): 0.84 ratio
IC50, Jurkat/NF-kB/TACI reporter (recombinant human APRIL [19]): 9.21 nM
IC50 relative to WT TACI (68-110)-Fc (Δ WT) (recombinant human APRIL [19]): 0.75 ratio
fold better neutralization than belimumab (recombinant human BAFF [20]): 3.4 fold
fold better neutralization than the anti-APRIL mAb (recombinant human APRIL [21]): 5.7 fold
IC50, Jurkat/NF-kB/TACI reporter (recombinant human BAFF [12]): 1220 nM
IC50 relative to TACI 30-110-Fc (recombinant human BAFF [12]): 0.21 ratio
IC50, Jurkat/NF-kB/TACI reporter (recombinant human APRIL [22]): 179 nM
IC50 relative to TACI 30-110-Fc (recombinant human APRIL [22]): 0.05 ratio
IC50 (read off the curve), human BAFF, NF-κB luciferase reporter, Jurkat/NF-κB/TACI cells (recombinant human BAFF [23]): ~1000 pM
Kd (recombinant human APRIL [24]): 1 pM
IC50, Jurkat/NF-kB/TACI reporter (recombinant human BAFF [25]): 2.8 nM
IC50, Jurkat/NF-kB/TACI reporter (rat APRIL): 22.7 nM
IC50, Jurkat/NF-kB/TACI reporter (recombinant human APRIL [26]): 3.4 nM
IC50, Jurkat/NF-kB/TACI reporter (cynomolgus monkey BAFF): 1.9 nM
IC50, Jurkat/NF-kB/TACI reporter (recombinant mouse APRIL [27]): 24.5 nM
IC50, Jurkat/NF-kB/TACI reporter (cynomolgus monkey APRIL): 3.3 nM
IC50, Jurkat/NF-kB/TACI reporter (rat BAFF): 3.8 nM
IC50, Jurkat/NF-kB/TACI reporter (recombinant mouse BAFF [28]): 15.2 nM
koff (recombinant human APRIL [29]): 0.007 s⁻¹
Kd (recombinant human BAFF [11]): 0.0593 nM
koff (recombinant human BAFF [11]): 3.67e-05 s⁻¹
kon (recombinant human BAFF [11]): 619000 M⁻¹ s⁻¹
IC50, Jurkat/NF-kB/TACI reporter (recombinant human BAFF [30]): 1270 nM
IC50 relative to TACI 30-110 (recombinant human BAFF [30]): 0.28 ratio
IC50, Jurkat/NF-kB/TACI reporter (recombinant human APRIL [31]): 214 nM
IC50 relative to TACI 30-110 (recombinant human APRIL [31]): 0.05 ratio
